Reference: patent US20080075726A1 (VACCINEX, published 2008)

Experiments:
[1] = target: T1, natural monkey IL-6 from rhesus monkey serum (rhesus monkey, UniProt P51494 28-212, limits assumed); assay: competition ELISA (U-Cytech Monkey IL-6 kit): rhesus monkey serum (plasma on the sheet) at dilutions 1/10 to 1/640 with the antibody at 5 µg/ml as competitor of the kit's coated IL-6 antibody; a lower OD than the sample '0' means binding
T1 sequence (looked up): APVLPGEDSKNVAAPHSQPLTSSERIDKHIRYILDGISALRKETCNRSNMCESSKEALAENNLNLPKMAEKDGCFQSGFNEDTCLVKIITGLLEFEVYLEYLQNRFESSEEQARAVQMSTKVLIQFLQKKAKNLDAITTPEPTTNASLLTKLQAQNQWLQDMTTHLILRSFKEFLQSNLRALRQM

recombinant rat IL-6 = target: T2, recombinant rat IL-6 (rat, UniProt P20607 25-211); assay: ELISA on coated rat IL-6; human mAbs detected with rabbit anti-human IgG-HRP; series 100, 50, 25, 12.5 ng/ml (antibody by paragraph 42; headed mIL-6 (ng/ml) on the sheet)
T2 sequence (looked up): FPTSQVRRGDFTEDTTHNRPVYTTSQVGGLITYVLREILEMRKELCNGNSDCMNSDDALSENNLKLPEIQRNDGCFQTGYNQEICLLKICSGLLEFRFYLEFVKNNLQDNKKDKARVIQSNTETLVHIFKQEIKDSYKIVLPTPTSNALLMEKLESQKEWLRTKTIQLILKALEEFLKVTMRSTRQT
Method: (§1) For sample “0,” no antibody was added. […] Each column represents a mean of two experiments +/− standard deviation.
(§2) For experiments using human monoclonal antibodies, IgG1 Kappa (human myeloma IgG1; Sigma-Aldrich Co.) mAb was used as a control. Rabbit anti-human IgG-HRP (Dako) was added at a dilution of 1/10,000 at 100 μl/well for detection of mAbs. […] For pAbs, Streptavidin-HRP (Prozyme) was added for detection at 100 μl/well. Antibodies were applied at concentrations of 12.5, 25, 50, and 100 ng/ml.

recombinant human IL-6 [2] = target: T3, recombinant human IL-6 (human, UniProt P05231 30-212, limits assumed); assay: competition ELISA, rhIL-6 in solution against captured IL-6
T3 construct: also called rhIL6; human recombinant IL-6

recombinant human IL-6 [3] = target: T3, recombinant human IL-6; assay: Biacore 2000, mAb captured on anti-human IgG CM5 chip, human IL-6 40-1.25 nM injected
Method: (§3) IC50 ELISA was performed as described above. Affinity analysis by Biacore was performed according to manufacturer protocols using HBS-EP buffer (Biacore AB).

human insulin = human insulin (human, UniProt P01308 25-54; P01308 90-110, limits assumed); assay: ELISA on a panel of control antigens (data not shown)
human serum albumin = human serum albumin (human, UniProt P02768 25-609); assay: as above
bovine serum albumin = bovine serum albumin (bovine, UniProt P02769 25-607); assay: as above
recombinant human IL-6 [4] = target: T3, recombinant human IL-6; assay: competition ELISA, rhIL-6 in solution against captured IL-6 (Affinity (nM) by IC50 ELISA)
Method: Briefly, plates were coated with 2 μg/ml of mBE4 capture antibody in coating buffer, 100 μl per well. The plates were incubated overnight. Next, the plates were washed 3 times and tapped dry. The plates were then blocked with 200 μl per well of Assay Diluent or 10% FBS in PBS and incubated for 2 hours. […] The reaction was left at RT for 3-4 hours. […] Next, the plates were washed 3 times and tapped dry. […] The plates were incubated for 1-2 hours. The plates were washed 3 times and tapped dry. […] The plates were incubated at RT for 2 hours. (Therefore, any unbound mAb at this point will be measured by ELISA). Plates were then washed 5 times and tapped dry. 100 μl of detection Ab goat anti-human IgG F(ab)′2-HRP (Jackson lab) was added at 1:20,000 dilutions or 1:40,000 dilutions (depending on lot) and the plates were incubated for 1-2 hours. The plates were washed 7 times and tapped dry. Next, the Developer Substrate (equal parts of each reagent in the kit) was pre-mixed and allowed to warm to room temperature before use. Then 100 μl of Developer was added to each well. The plates were allowed to develop for 15 minutes un-sealed in a drawer in the dark. Finally, developing was stopped by adding 100 μl of 2N H₂SO₄ to each well and plates were read as Endpoint at 450 nm-[…].
as §3

recombinant murine IL-6 = target: T4, recombinant murine IL-6 (murine, UniProt P08505 25-211); assay: ELISA on coated murine IL-6; human mAbs detected with rabbit anti-human IgG-HRP; series 100, 50, 25, 12.5 ng/ml (antibody by paragraph 42; headed mIL-6 (ng/ml) on the sheet)
T4 sequence (looked up): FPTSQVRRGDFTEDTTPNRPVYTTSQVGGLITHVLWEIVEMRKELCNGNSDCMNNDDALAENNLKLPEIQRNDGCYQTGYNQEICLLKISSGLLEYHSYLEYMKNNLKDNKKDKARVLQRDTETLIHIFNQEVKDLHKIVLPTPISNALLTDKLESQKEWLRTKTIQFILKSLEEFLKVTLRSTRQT
Method: as §1, §2

Chain of human serum albumin (P02768 25-609 limits assumed): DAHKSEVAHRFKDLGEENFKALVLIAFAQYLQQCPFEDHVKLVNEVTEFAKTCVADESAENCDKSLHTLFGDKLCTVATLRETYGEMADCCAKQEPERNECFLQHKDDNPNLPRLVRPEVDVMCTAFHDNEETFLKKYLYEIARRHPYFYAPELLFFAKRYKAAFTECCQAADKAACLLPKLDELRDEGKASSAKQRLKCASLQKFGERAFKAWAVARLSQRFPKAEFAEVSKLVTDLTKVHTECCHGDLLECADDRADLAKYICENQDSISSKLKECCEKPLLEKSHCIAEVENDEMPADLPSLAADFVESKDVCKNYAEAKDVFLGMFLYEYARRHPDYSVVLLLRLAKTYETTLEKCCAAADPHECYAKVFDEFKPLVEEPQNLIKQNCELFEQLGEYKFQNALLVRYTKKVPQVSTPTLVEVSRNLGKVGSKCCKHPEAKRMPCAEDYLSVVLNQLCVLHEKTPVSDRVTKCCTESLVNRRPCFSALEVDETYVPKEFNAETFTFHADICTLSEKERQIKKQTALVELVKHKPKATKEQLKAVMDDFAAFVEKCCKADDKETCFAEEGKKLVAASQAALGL
Chain of human insulin (P01308 25-54 limits assumed, chain 1 of 2): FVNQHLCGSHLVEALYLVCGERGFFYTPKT
Chain of human insulin (P01308 90-110 limits assumed, chain 2 of 2): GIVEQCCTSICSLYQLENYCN
Chain of bovine serum albumin (P02769 25-607 limits assumed): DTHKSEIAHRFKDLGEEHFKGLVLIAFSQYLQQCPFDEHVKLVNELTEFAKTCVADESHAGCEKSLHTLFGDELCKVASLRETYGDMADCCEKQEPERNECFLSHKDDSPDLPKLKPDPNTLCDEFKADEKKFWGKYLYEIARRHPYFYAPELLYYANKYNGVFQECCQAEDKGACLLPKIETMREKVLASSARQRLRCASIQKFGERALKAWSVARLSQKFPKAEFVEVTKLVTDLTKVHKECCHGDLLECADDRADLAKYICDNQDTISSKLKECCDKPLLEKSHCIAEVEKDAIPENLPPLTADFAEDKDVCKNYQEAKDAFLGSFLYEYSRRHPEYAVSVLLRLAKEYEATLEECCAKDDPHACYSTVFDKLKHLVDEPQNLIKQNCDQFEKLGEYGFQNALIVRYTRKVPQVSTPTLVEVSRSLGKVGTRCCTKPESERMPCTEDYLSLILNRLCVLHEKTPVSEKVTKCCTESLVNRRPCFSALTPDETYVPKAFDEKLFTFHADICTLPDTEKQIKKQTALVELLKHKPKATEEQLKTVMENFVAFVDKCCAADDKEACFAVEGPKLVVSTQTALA

B1: mAb 1339 (antibody, human IgG1, kappa, V domains shown)
VH: QVTLKESGPTLVKPTQTLTLTCSFSGFSLSTSGVGVGWVRQPPGKALEWLAFIWWDDDKYYSPSLESRLTITKDTSKNQVVLTMTNMDPVDTATYYCARSADDYLYYSFDTWGQGTLVTVSS
VL: DIQMTQSPSSLSAFVGDGVTMTCWASQSINDYLNWYHQRPGEAPELLVFAASNLQIGVPSRFRGSGSETYFTLTINSLQPEDSGTYFCQNAHSFPLTFGGGTKLEIKR
- binding result [1]: binds
- binding result (recombinant rat IL-6): no binding (tested: 100 ng/ml)
- IC50 (recombinant human IL-6 [2]): 0.026 nM
- Kd (recombinant human IL-6 [3]): 0.071 nM
- binding result (human insulin): no binding
- binding result (human serum albumin): no binding
- binding result (bovine serum albumin): no binding
- IC50 (recombinant human IL-6 [4]): 0.026 nM
- binding result (recombinant murine IL-6): no binding (tested: 100 ng/ml (Ab: 0.1 µg/ml in the title))
